Measurements taken from patent US20210094998A1.

Tests used:
Assay in all cases: cell-based or functional assay
[1] = biological target: CRHR2
[2] = biological target: CRHR1
[3] = biological target: rhesus monkey Y2 receptor (rhesus monkey) (UniProt Q9GK74)
[4] = biological target: mouse Y2 receptor (mouse) (UniProt P97295)
[5] = biological target: rat Y2 receptor (rat)
[6] = biological target: human Y1 receptor (human) (UniProt P25929)
[7] = biological target: human glucagon receptor (human) (UniProt P47871)
[8] = biological target: mouse glucagon receptor (mouse) (UniProt Q61606)
[9] = biological target: rat glucagon receptor (rat) (UniProt P30082)
[10] = biological target: cynomolgus monkey GLP1 receptor (cynomolgus monkey) (UniProt F8V479)
[11] = biological target: human GLP1 receptor (human) (UniProt P43220)
[12] = biological target: cynomolgus monkey glucagon receptor (cynomolgus monkey)
[13] = biological target: mouse GLP1 receptor (mouse) (UniProt O35659)
Sequence of mouse GLP1 receptor (mouse) (O35659 22-463): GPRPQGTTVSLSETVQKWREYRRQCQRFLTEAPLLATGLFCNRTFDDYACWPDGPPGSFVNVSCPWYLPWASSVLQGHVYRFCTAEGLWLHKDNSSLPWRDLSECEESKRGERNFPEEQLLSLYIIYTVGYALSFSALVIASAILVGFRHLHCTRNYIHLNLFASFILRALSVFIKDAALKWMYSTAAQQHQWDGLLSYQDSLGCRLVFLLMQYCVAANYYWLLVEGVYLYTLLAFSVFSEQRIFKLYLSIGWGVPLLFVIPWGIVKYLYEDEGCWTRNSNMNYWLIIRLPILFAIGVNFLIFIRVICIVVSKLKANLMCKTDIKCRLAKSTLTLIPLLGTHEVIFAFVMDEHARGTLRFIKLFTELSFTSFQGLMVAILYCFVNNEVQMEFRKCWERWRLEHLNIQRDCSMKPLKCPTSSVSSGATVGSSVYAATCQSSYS

Sequence of rhesus monkey Y2 receptor (rhesus monkey) (Q9GK74 whole entry): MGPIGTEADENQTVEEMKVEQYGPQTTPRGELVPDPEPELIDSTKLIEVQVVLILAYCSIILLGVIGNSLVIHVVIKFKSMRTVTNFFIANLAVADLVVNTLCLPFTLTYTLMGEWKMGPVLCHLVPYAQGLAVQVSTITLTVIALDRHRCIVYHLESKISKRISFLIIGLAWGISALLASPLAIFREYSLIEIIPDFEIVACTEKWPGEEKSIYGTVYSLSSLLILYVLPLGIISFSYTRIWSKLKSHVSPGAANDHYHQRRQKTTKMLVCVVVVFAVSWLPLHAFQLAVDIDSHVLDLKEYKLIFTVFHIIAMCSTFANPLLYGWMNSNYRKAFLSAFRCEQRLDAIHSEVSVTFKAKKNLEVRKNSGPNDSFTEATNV
Sequence of human glucagon receptor (human) (P47871 26-477): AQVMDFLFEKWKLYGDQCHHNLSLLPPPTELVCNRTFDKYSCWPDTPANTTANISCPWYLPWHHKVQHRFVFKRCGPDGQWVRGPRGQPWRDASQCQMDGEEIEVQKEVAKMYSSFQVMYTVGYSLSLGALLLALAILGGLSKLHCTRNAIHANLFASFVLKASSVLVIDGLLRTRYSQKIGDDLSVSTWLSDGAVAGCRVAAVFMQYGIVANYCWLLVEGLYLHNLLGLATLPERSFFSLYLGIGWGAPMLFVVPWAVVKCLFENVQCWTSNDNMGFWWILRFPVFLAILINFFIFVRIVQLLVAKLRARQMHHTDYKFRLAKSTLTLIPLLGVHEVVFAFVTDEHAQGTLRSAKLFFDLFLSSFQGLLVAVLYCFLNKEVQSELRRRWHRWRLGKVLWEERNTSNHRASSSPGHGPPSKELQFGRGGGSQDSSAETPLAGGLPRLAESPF
Sequence of mouse glucagon receptor (mouse) (Q61606 27-485): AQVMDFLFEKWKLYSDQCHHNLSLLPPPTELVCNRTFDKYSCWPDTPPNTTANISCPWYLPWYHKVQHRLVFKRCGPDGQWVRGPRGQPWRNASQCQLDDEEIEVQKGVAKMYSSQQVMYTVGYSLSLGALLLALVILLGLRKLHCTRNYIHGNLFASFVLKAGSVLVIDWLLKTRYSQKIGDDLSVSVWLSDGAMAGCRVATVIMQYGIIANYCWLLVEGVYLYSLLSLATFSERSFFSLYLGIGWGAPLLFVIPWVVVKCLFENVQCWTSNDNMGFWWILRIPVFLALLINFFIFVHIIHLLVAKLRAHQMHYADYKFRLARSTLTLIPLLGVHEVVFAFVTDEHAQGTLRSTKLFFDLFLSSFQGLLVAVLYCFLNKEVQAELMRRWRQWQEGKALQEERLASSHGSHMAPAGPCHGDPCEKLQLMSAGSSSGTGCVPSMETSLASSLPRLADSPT
Sequence of mouse Y2 receptor (mouse) (P97295 whole entry): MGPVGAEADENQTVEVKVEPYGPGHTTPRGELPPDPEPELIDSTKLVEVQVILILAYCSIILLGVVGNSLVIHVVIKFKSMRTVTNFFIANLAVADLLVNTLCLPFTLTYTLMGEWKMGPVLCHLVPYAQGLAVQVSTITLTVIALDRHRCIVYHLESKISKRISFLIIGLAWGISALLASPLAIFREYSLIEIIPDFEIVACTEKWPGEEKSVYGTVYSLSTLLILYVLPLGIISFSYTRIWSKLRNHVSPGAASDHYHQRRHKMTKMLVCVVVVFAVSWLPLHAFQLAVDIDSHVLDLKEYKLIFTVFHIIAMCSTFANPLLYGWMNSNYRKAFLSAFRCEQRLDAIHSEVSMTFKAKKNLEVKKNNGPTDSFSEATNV
Sequence of rat glucagon receptor (rat) (P30082 27-485): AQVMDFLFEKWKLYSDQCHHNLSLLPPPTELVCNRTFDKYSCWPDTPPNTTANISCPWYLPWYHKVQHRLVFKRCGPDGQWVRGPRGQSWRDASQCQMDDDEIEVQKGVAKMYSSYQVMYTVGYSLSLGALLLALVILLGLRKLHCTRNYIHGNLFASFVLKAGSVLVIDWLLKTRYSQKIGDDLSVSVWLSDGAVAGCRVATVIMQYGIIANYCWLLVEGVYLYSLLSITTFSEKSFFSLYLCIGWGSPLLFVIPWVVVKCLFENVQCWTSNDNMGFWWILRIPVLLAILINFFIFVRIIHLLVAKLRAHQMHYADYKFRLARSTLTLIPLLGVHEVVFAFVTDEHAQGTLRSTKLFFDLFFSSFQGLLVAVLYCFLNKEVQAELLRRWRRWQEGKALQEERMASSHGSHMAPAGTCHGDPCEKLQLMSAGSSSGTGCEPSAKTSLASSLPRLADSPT
Sequence of human Y1 receptor (human) (P25929 whole entry): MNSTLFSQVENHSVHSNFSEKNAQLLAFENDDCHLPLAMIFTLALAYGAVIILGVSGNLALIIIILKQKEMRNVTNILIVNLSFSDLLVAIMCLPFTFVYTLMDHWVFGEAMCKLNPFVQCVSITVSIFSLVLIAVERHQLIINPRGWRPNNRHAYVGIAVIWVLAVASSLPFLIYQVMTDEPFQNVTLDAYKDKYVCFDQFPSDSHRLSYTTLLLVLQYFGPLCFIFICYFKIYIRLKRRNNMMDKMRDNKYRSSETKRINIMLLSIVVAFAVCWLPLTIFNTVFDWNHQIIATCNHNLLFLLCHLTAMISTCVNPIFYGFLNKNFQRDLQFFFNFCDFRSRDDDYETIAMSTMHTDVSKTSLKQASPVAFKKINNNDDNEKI
Sequence of human GLP1 receptor (human) (P43220 24-463): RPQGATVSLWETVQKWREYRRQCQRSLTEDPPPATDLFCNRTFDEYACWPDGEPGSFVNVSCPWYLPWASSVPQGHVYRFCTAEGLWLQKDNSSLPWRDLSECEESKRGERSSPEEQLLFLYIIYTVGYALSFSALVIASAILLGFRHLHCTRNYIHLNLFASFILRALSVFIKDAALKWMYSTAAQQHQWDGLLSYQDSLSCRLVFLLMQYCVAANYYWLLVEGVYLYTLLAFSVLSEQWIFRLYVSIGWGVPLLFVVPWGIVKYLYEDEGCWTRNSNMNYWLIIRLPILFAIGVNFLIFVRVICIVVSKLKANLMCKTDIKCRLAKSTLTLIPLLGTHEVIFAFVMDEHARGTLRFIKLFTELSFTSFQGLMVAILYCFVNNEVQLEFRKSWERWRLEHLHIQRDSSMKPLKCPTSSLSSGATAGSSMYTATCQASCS

**Q.** With “Sauvagine (from UniProt P01144 1-40) (peptide)” as the substance, how does the RC50, cAMP assay [1] read?
**A.** 0.0034 µM

**Q.** What about the RC50, cAMP assay [2] of the same substance?
**A.** 0.000308 µM

**Q.** What does the source list for PYY3-36 (peptide)?
**A.** EC50, cAMP assay (LANCE) on receptor-expressing cells [3]: 0.06 nM; EC50, cAMP assay (LANCE) on receptor-expressing cells [4]: 0.03 nM; EC50, cAMP assay (LANCE) on receptor-expressing cells [5]: 0.5 nM; EC50, cAMP assay (LANCE) on receptor-expressing cells [6]: 66.4 nM

**Q.** How did the EC50, receptor cAMP assay [7] turn out when Ser-8 GLP1 (peptide) was run?
**A.** > 100 nM

**Q.** What about the EC50, receptor cAMP assay [8] of the same substance?
**A.** > 100 nM

**Q.** What about the EC50, receptor cAMP assay [9] of the same substance?
**A.** > 100 nM

**Q.** And the EC50, receptor cAMP assay [10]?
**A.** 0.08 nM

**Q.** What about the EC50, receptor cAMP assay [11] of the same substance?
**A.** 0.07 nM

**Q.** And the EC50, receptor cAMP assay [12]?
**A.** > 100 nM

**Q.** What about the EC50, receptor cAMP assay [13] of the same substance?
**A.** 0.06 nM

**Q.** “Sauvagine (from UniProt P01144 1-40) (peptide; unit assumed)” was tested. Which Max response, cAMP assay [1] did it give?
**A.** 107%

**Q.** And the Max response, cAMP assay [2]?
**A.** 106%
